Assay results: patent CN117136070A (CELLDEX THERAPEUTICS INC, dated 2023)

Tests used:
重组人FcrRIIb = biological target: T1, 重组人FcrRIIb (human, UniProt P31994 43-217, limits assumed); assay: BLI, His-tagged Fc receptor captured on anti-penta-His biosensor, antibody in solution
T1 construct: Recombinant, histidine-tagged, captured on anti-penta-His biosensor; also called FcγRIIb; not shown: histidine tag
T1 sequence (looked up): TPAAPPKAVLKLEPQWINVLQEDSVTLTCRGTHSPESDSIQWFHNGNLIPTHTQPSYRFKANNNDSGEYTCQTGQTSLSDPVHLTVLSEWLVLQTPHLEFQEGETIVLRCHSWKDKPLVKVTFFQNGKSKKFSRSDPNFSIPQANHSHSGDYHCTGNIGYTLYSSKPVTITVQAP

KIT (野生型KIT, M-07e细胞) = KIT (野生型KIT, M-07e细胞) (UniProt P10721 26-976, limits assumed); assay: cell-based or functional assay
重组人FcrRI = biological target: T2, 重组人FcrRI (human, UniProt P12314 16-288, limits assumed); assay: BLI, His-tagged Fc receptor captured on anti-penta-His biosensor, antibody in solution
T2 construct: Recombinant, histidine-tagged, captured on anti-penta-His biosensor; also called FcγRI; FcgRI; not shown: histidine tag

重组人FcrRIIa = biological target: T3, 重组人FcrRIIa (human, UniProt P12318 36-218, limits assumed); assay: as above
T3 construct: Recombinant, histidine-tagged, captured on anti-penta-His biosensor; also called FcγRIIa; not shown: histidine tag
T3 sequence (looked up): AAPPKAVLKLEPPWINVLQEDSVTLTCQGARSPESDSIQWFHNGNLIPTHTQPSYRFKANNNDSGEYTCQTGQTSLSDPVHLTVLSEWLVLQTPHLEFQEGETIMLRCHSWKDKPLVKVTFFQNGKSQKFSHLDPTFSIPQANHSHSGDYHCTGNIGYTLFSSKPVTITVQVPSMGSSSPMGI

重组人FcrRIIIa = biological target: T4, 重组人FcrRIIIa (human, UniProt P08637 17-208); assay: as above
T4 construct: Recombinant, histidine-tagged, captured on anti-penta-His biosensor; also called FcγRIIIa; not shown: histidine tag

重组人FcrRIIIb = biological target: T5, 重组人FcrRIIIb (human, UniProt O75015 17-200); assay: as above
T5 construct: Recombinant, histidine-tagged, captured on anti-penta-His biosensor; also called FcγRIIIb; not shown: histidine tag
T5 sequence (O75015 17-200 limits assumed): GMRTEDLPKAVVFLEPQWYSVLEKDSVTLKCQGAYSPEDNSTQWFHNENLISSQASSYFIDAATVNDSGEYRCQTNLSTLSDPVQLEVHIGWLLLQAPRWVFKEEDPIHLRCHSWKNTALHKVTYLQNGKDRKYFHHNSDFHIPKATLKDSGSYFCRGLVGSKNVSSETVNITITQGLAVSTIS

T4 sequence (P08637 17-208 limits assumed): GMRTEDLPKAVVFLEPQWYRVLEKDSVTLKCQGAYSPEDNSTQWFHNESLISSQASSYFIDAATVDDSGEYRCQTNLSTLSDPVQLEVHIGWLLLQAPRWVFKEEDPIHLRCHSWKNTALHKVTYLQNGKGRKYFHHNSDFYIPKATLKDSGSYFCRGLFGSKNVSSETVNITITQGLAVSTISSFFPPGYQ
Chain of KIT (野生型KIT, M-07e细胞) (P10721 26-976 limits assumed): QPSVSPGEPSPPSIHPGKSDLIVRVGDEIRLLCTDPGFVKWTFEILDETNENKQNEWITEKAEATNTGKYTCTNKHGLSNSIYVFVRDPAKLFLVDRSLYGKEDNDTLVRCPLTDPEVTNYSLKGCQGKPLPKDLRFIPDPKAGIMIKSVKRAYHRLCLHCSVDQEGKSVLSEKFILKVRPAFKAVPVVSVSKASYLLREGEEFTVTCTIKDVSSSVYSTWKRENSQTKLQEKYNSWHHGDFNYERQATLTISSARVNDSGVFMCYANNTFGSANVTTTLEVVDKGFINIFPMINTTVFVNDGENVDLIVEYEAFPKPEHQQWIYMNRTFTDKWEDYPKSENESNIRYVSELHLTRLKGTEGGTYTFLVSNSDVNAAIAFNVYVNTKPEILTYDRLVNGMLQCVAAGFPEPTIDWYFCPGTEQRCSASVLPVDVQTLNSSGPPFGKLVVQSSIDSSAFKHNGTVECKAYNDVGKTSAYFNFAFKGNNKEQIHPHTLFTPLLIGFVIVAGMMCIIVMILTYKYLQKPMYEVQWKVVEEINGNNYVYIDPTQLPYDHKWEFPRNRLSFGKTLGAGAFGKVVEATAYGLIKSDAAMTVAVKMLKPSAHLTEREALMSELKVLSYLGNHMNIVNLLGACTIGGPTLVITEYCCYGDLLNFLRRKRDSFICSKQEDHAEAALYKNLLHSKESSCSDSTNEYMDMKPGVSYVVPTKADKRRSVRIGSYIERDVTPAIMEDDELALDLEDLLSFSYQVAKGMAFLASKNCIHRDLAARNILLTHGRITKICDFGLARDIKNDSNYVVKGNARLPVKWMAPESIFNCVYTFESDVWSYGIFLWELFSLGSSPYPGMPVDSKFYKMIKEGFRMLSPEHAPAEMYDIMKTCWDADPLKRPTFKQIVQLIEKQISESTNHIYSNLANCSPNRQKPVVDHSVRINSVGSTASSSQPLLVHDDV
T2 sequence (P12314 16-288 limits assumed): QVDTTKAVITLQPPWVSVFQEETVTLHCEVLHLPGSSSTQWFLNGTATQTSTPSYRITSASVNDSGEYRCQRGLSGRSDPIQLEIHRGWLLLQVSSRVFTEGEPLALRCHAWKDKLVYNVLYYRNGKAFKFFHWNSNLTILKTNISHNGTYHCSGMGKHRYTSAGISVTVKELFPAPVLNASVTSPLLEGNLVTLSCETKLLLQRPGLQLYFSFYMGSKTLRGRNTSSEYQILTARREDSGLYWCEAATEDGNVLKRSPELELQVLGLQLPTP

B1: mAbc (antibody)
VH: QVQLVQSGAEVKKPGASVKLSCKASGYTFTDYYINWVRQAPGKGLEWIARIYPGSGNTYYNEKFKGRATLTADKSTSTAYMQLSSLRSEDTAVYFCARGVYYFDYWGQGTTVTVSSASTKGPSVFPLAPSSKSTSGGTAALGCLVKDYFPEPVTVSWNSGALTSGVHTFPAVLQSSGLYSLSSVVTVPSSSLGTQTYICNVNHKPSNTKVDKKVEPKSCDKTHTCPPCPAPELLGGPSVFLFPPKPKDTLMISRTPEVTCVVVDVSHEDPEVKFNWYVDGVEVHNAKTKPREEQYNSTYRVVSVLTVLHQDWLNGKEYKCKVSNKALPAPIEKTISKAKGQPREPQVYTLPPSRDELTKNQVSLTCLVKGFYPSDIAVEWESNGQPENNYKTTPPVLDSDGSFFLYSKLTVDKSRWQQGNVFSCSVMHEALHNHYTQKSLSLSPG
VL: DIVMTQSPSSLSASVGDRVTITCKASQNVRTNVAWYQQKPGKAPKALIYSASYRYSGVPDRFTGSGSGTDFTLTISSLQPEDFADYFCQQYNSYPRTFGGGTKVEIKRTVAAPSVFIFPPSDEQLKSGTASVVCLLNNFYPREAKVQWKVDNALQSGNSQESVTEQDSKDSTYSLSSTLTLSKADYEKHKVYACEVTHQGLSSPVTKSFNRGEC
notes: also called 具有相同可变区序列但是未突变的(野生型)人IgG1序列的相应抗体; 具有野生型(未突变)IgG1 Fc域的相应抗体; copies: 2 + 2
- binding result (重组人FcrRIIb): no binding

B2: mAb1 (antibody, human IgG1, kappa)
heavy: QVQLVQSGAEVKKPGASVKLSCKASGYTFTDYYINWVRQAPGKGLEWIARIYPGSGNTYYNEKFKGRATLTADKSTSTAYMQLSSLRSEDTAVYFCARGVYYFDYWGQGTTVTVSSASTKGPSVFPLAPSSKSTSGGTAALGCLVKDYFPEPVTVSWNSGALTSGVHTFPAVLQSSGLYSLSSVVTVPSSSLGTQTYICNVNHKPSNTKVDKKVEPKSCDKTHTCPPCPAPEAQGGPSVFLFPPKPKDTLYITREPEVTCVVVDVSHEDPEVKFNWYVDGVEVHNAKTKPREEQYNSTYRVVSVLTVLHQDWLNGKEYKCQVSNKALPAPIEKTISKAKGQPREPQVYTLPPSRDELTKNQVSLTCLVKGFYPSDIAVEWESNGQPENNYKTTPPVLDSDGSFFLYSKLTVDKSRWQQGNVFSCSVMHEALHNHYTQKSLSLSPG
light: B1 VL
notes: also called 抗-KIT抗体mAb1; Fc突变的抗-KIT抗体; copies: 2 + 2
- SCF-依赖性M-07e细胞增殖的抑制, 平均IC50 (KIT (野生型KIT, M-07e细胞)): 1.11 nM
- binding result (重组人FcrRI): no binding (tested: 500nM)
- binding result (重组人FcrRIIa): no binding (tested: 500nM)
- binding result (重组人FcrRIIb): no binding (tested: 500nM)
- binding result (重组人FcrRIIIa): no binding (tested: 500nM)
- binding result (重组人FcrRIIIb): no binding (tested: 500nM)
